B1: Catenin beta-1 (Homo sapiens), P35222 (parent)
chain: MATQADLMELDMAMEPDRKAAVSHWQQQSYLDSGIHSGATTTAPSLSGKGNPEEEDVDTSQVLYEWEQGFSQSFTQEQVADIDGQYAMTRAQRVRAAMFPETLDEGMQIPSTQFDAAHPTNVQRLAEPSQMLKHAVVNLINYQDDAELATRAIPELTKLLNDEDQVVVNKAAVMVHQLSKKEASRHAIMRSPQMVSAIVRTMQNTNDVETARCTAGTLHNLSHHREGLLAIFKSGGIPALVKMLGSPVDSVLFYAITTLHNLLLHQEGAKMAVRLAGGLQKMVALLNKTNVKFLAITTDCLQILAYGNQESKLIILASGGPQALVNIMRTYTYEKLLWTTSRVLKVLSVCSSNKPAIVEAGGMQALGLHLTDPSQRLVQNCLWTLRNLSDAATKQEGMEGLLGTLVQLLGSDDINVVTCAAGILSNLTCNNYKNKMMVCQVGGIEALVRTVLRAGDREDITEPAICALRHLTSRHQEAEMAQNAVRLHYGLPVVVKLLHPPSHWPLIKATVGLIRNLALCPANHAPLREQGAIPRLVQLLVRAHQDTQRRTSMGGTQQQFVEGVRMEEIVEGCTGALHILARDVHNRIVIRGLNTIPLFVQLLYSPIENIQRVAAGVLCELAQDKEAAEAIEAEGATAPLTELLHSRNEGVATYAAAVLFRMSEDKPQDYKKRLSVELTSSLFRTEPMAWNETADLGLDIGAQGEPLGYRQDDPSYRSFHSGGYGQDALGMDPMMEHEMGGHHPGADYPVDGLPDLGHAQDLMDGLPPGDSNQLAWFDTDL

Variants of: B1
Conditions: with mlp3b_human MAP1LC3B

effect of a mutation on the interaction | Variant
disrupting interaction | W504A;I507A

Variants of: B1
Conditions: with mlp3b_human MAP1LC3B
Remark: another data set of the same source

effect of a mutation on the interaction | Variant
decreasing interaction | W504A;I507A

— IntAct's records for PubMed 23736261
